Results as given in patent publication US20240141061A1, “NOVEL ANTIBODY AGAINST CD55 AND USE THEREOF” (SG MEDICAL INC, priority 2021, published 2024).

T1: recombinant human CD55 (R&D Systems 2009-CD/CF) (human, UniProt P08174 35-353)
T1 construct: Bought recombinant protein coated on ELISA plates; also called decay-accelerating factor; DAF
T1 sequence (looked up): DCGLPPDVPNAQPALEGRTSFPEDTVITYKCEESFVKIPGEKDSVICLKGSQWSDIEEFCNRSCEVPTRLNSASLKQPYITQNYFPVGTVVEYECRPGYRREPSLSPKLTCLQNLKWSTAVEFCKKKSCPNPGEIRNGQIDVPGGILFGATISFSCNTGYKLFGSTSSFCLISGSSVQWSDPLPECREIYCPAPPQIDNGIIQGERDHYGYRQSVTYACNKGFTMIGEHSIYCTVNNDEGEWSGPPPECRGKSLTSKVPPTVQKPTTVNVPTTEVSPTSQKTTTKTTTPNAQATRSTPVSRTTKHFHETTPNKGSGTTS

T2: recombinant human CD55 (Homo sapiens, UniProt P08174)
T2 construct: purchased R&D Systems 2009-CD/CF
T2 sequence (P08174 35-353): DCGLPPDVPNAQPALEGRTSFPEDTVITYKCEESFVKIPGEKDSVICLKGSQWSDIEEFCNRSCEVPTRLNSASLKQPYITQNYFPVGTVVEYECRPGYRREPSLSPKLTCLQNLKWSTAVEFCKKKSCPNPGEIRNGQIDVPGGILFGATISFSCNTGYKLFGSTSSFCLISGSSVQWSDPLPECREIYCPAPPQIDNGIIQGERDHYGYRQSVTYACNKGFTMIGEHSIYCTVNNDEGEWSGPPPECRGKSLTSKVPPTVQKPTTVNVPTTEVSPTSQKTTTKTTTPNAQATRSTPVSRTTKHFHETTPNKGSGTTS

B1: 3R-2-1H (antibody, V domains shown)
VH: EVQLVESGGGLVQPGGSLRLSCVARGFTFSDRGMAWVRQAPGKGLEWVSGISSSGRYTYYAPAVKGRTTISRDNSKNTLYLQMNSLRAEDTAVYYCAKNAVAGGWHAAYIDAWGQGTTVTVSS
VL: SYELTQPPSVSVSPGQTASITCSGGGGSYGWYQQKPGQSPVTVIYWNDKRPSGIPERFSGSKSGNTATLTISGTQAMDEADYYCGGWDSSTYAIFGGGTKLTVL
notes: Tested as full-length IgG
B2: EP-9B (antibody, V domains shown)
VH: EVQLVESGGGLVQPGGSLRLSCAASGFTFSDRGMVWVRQSPGKGLEWVSGISSSGRYTYYAPAVKGRATISRDNSKNTLYLQMNNLRAEDTAVYYCAKNAVAGGWHAAYIDAWGQGTTVTVSS
VL: SYELTQPPSVSVSPGQTASITCSGGGGSYGWYQQKPGQSPVTVIYWNDKRPSGIPERFSGSKSGNTATLTISGTQAMDEADYYCGGWDSSTYAIFGGGTKLTVL
notes: Tested as full-length IgG
B3: EP-1F (antibody, V domains shown)
VH: EVQLAESGGGLVQPGGSLRLSCAASGFTFSDRGMAWVRQAPGKGLEWVSGISSSGRYTYYAPAVKGRATISRDNSKNTLYLQMNSLRAEDTAVYYCAKNAVAGGWHAAYIDAWGQGTTVTVSS
VL: SYELTQPPSVSVSPGQTASITCSGGGGSYGWYQQKPGQSPVTVIYWNDKRPSGIPERFSGSKSGNTATLTISGTQAMDEADYYCGGWDSSTYAIFGGGTKLTVL
notes: Tested as full-length IgG
B4: EP-1E (antibody, V domains shown)
VH: EVQLVESGGGLVQPGGSLRLSCAASGFTFSDRGMAWVRQAPGKGLEWVSGISSSGRYTYYAPAVKGRATISRDNSKNTLYLQMNSLRAEDTAVYYCAKNAVAGGWHAAYIDAWGQGTTVTVSS
VL: SYELTQPPSVSVSPGQTASITCSGGGGSYGWFQQKPGQSPVTVIYWNNKRPSGIPERFSGSKSGNTATLTISGTQAMDEADYYCGGWDSSTYAIFGGGTKLTVL
notes: Tested as full-length IgG
B5: 3R-2-1H: anti-CD55 antibody screened from G4-1H random mutation library, VL SEQ ID NO 4, VH SEQ ID NO 22 (antibody, V domains shown)
VH: EVQLVESGGGLVQPGGSLRLSCVARGFTFSDRGMAWVRQAPGKGLEWVSGISSSGRYTYYAPAVKGRTTISRDNSKNTLYLQMNSLRAEDTAVYYCAKNAVAGGWHAAYIDAWGQGTTVTVSS
VL: SYELTQPPSVSVSPGQTASITCSGGGGSYGWYQQKPGQSPVTVIYWNDKRPSGIPERFSGSKSGNTATLTISGTQAMDEADYYCGGWDSSTYAIFGGGTKLTVL
modifications: 3R-2-1H_VH; G4-1H_VL
B6: EP-1E: anti-CD55 antibody screened from G4-1H random mutation library, VL SEQ ID NO 18, VH SEQ ID NO 19 (antibody, V domains shown)
VH: EVQLVESGGGLVQPGGSLRLSCAASGFTFSDRGMAWVRQAPGKGLEWVSGISSSGRYTYYAPAVKGRATISRDNSKNTLYLQMNSLRAEDTAVYYCAKNAVAGGWHAAYIDAWGQGTTVTVSS
VL: SYELTQPPSVSVSPGQTASITCSGGGGSYGWFQQKPGQSPVTVIYWNNKRPSGIPERFSGSKSGNTATLTISGTQAMDEADYYCGGWDSSTYAIFGGGTKLTVL
modifications: EP-1E_VH; EP-1E_VL
B7: EP-9B: anti-CD55 antibody screened from G4-1H random mutation library, VL SEQ ID NO 4, VH SEQ ID NO 21 (antibody, V domains shown)
VH: EVQLVESGGGLVQPGGSLRLSCAASGFTFSDRGMVWVRQSPGKGLEWVSGISSSGRYTYYAPAVKGRATISRDNSKNTLYLQMNNLRAEDTAVYYCAKNAVAGGWHAAYIDAWGQGTTVTVSS
VL: SYELTQPPSVSVSPGQTASITCSGGGGSYGWYQQKPGQSPVTVIYWNDKRPSGIPERFSGSKSGNTATLTISGTQAMDEADYYCGGWDSSTYAIFGGGTKLTVL
modifications: EP-9B_VH; G4-1H_VL
B8: 10H(F): EP-10H backbone with H100A site replaced with F, VH SEQ ID NO 28, EP-10H light chain (antibody, V domains shown)
VH: EVQLAESGGGLVQPGGSLRLSCAASGFTFSDRGMAWVRQAPGKGLEWVSGISSSGRYTYYAPAVKGRATISRDNSKNTLYLQMNSLRAEDTAVYYCAKNAFAGGWHAAYIDAWGQGTTVTVSS
VL: SYELTQPPSVSVSPGQTASITCSGGGGSYGWYQQKPGQSPVTVIYWNDKRPSGIPERFSGSKSGNTATLTISGTQAMDEADYYCGGWDSSTYAIFGGGTKLTVL
B9: EP-1F: anti-CD55 antibody screened from G4-1H random mutation library, VL SEQ ID NO 4, VH SEQ ID NO 20 (antibody, V domains shown)
VH: EVQLAESGGGLVQPGGSLRLSCAASGFTFSDRGMAWVRQAPGKGLEWVSGISSSGRYTYYAPAVKGRATISRDNSKNTLYLQMNSLRAEDTAVYYCAKNAVAGGWHAAYIDAWGQGTTVTVSS
VL: SYELTQPPSVSVSPGQTASITCSGGGGSYGWYQQKPGQSPVTVIYWNDKRPSGIPERFSGSKSGNTATLTISGTQAMDEADYYCGGWDSSTYAIFGGGTKLTVL
modifications: EP-1F_VH; G4-1H_VL
B10: 10H(L): EP-10H backbone with H100A site replaced with L, VH SEQ ID NO 27, EP-10H light chain (antibody, V domains shown)
VH: EVQLAESGGGLVQPGGSLRLSCAASGFTFSDRGMAWVRQAPGKGLEWVSGISSSGRYTYYAPAVKGRATISRDNSKNTLYLQMNSLRAEDTAVYYCAKNALAGGWHAAYIDAWGQGTTVTVSS
VL: SYELTQPPSVSVSPGQTASITCSGGGGSYGWYQQKPGQSPVTVIYWNDKRPSGIPERFSGSKSGNTATLTISGTQAMDEADYYCGGWDSSTYAIFGGGTKLTVL
B11: 10H(M): EP-10H backbone with H100A site replaced with M, VH SEQ ID NO 29, EP-10H light chain (antibody, V domains shown)
VH: EVQLAESGGGLVQPGGSLRLSCAASGFTFSDRGMAWVRQAPGKGLEWVSGISSSGRYTYYAPAVKGRATISRDNSKNTLYLQMNSLRAEDTAVYYCAKNAMAGGWHAAYIDAWGQGTTVTVSS
VL: SYELTQPPSVSVSPGQTASITCSGGGGSYGWYQQKPGQSPVTVIYWNDKRPSGIPERFSGSKSGNTATLTISGTQAMDEADYYCGGWDSSTYAIFGGGTKLTVL
B12: G4-1H: humanized 4-1H anti-CD55 antibody, VL SEQ ID NO 4, VH SEQ ID NO 5 (antibody, V domains shown)
VH: EVQLVESGGGLVQPGGSLRLSCAASGFTFSDRGMAWVRQAPGKGLEWVSGISSSGRYTYYAPAVKGRATISRDNSKNTLYLQMNSLRAEDTAVYYCAKNAGAGGWHAAYIDAWGQGTTVTVSS
VL: SYELTQPPSVSVSPGQTASITCSGGGGSYGWYQQKPGQSPVTVIYWNDKRPSGIPERFSGSKSGNTATLTISGTQAMDEADYYCGGWDSSTYAIFGGGTKLTVL
modifications: G4-1H_VH; G4-1H_VL

The molecules below were run against T1, recombinant human CD55 (R&D Systems …) (assay: indirect ELISA, recombinant human CD55 coated). Conditions: not given.

Q: Does B1 bind?
A: Result: binds

Q: Does B2 bind?
A: Result: binds

Q: Does B3 bind?
A: Result: binds

Q: Does B4 bind?
A: Result: binds

The molecules below were run against T2, recombinant human CD55 (assay: Indirect ELISA, affinity for CD55). Conditions: full-length antibody 0.0001-10 nM on CD55 coated at 1 μg/mL.
Format: binding
Protocol: The binding ability of the G4-1H monoclonal antibody prepared in Example 2 for CD55 was investigated by indirect ELISA. For the indirect ELISA, recombinant human CD55 (R&D Systems, USA) diluted to 1 μg/mL in 50 μL of PBS was added to a 96-well immunoplate (Corning, USA) and then adsorbed by keeping at 4° C. overnight. After incubation for 1 hour at room temperature in a buffer containing 3% bovine serum albumin (Millipore, USA), followed by washing with a buffer containing 0.5% Tween 20 (Amresco, USA) three times, 50 μL of the serially diluted antibody (0.0001, 0.0003, 0.001, 0.003, 0.01, 0.03, 0.1, 0.3, 1, 3 and 10 nM) was treated per well. After incubation at room temperature for 2 hours for antibody-antigen binding, the antibody-antigen complex was washed three times with a buffer containing 0.5% Tween 20 (Amresco, USA). After treating with 50 μL of anti-human immunoglobulin Fc-HRP antibody (Jackson Immunoresearch, USA) diluted to 1:3,000 per well, followed by incubation at room temperature for 1 hour and washing three times with a buffer containing 0.5% Tween 20 (Amresco, USA), color development was conducted for 10 minutes by adding 50 μL of 3,3′,5,5′-tetramethylbenzidine (TMB) (ThermoFisher Scientific, USA).
The affinity of the antibodies screened in Example 6 for CD55 was investigated by indirect ELISA. The indirect ELISA was conducted in the same manner as in Example 3.
The affinity of the antibodies prepared in Example 8 for CD55 was investigated by indirect ELISA. The indirect ELISA was conducted in the same manner as in Example 3. […]

Q: How did the “affinity for CD55 (indirect ELISA, absorbance at 450 nm)” value (shortened to “affinity for CD55”) turn out when B5 was run?
A: The value was “comparable affinity”.

Q: How did the “affinity for CD55” value turn out when B6 was run?
A: Its value is “comparable affinity”.

Q: For B7, which “affinity for CD55” value is on record?
A: The value was “affinity higher than that of 4-1H but lower than those of other antibodies”.

Q: Which “affinity for CD55” value does the source give for B8 here?
A: The value was “lower affinity than EP-10H”.

Q: For B9, which “affinity for CD55” value is on record?
A: Its value is “comparable affinity”.

Q: With B10 as the molecule, how does the “affinity for CD55” value read?
A: Its value is “lower affinity than EP-10H”.

Q: For B11, which “affinity for CD55” value is on record?
A: Its value is “lower affinity than EP-10H”.

Q: With B12 as the molecule, how does the “affinity for CD55” value read?
A: Its value is “lower affinity for CD55 than 4-1H”.
